{"source": "the DeepSol protein solubility set", "data": [{"assay": "soluble on expression in E. coli; label from the status in PepcDB or PDB records", "values": [{"sequence": "RTLGEVWKERLNQMTKEEFTRYRKEAIIEVDRSAAKHARKEGNVTGGHPVSRGTAKLRWLVERRFLEPVGKVIDLGCGRGGWCYYMATQKRVQEVRGYTKGGPGHEEPQLVQSYGWNIVTMKSGVDVFYRPSECCDTLLCDIGESSSSAEVEEHRTIRVLEMVEDWLHRGPREFCVKVLCPYMPKVIEKMELLQRRYGGGLVRNPLSRNSTHEMYWVSRASGNVVHSVNMTSQVLLGRMEKRTWKGPQYEEDVNLGSGTRAV", "soluble on expression in E. coli": "soluble"}, {"sequence": "AHHHHHHGSGVEKVPKYDIPVKKVEYVFIELDKMKPHEQLVQRELEDFIESVTGSGIFWKPMLLAKIPGTDEYLIVDGHHRWAGLQKLGAKRAPSVILDYFDEGVKVYTWYPAFKGDVNKVIERLKAEGLEVIEDEKAEEKAEKGEIAFALIGEKSFAIPGGLEEQKKVSKVLDEMDQAKEIELVYYGLKEDAKADMEKGEIDYVFIRKAPTKEEVMELVKRGEVFSPKTTRHVLPFIPDKIDVKLEDLF", "soluble on expression in E. coli": "soluble"}, {"sequence": "MSLSTQTVTIKSLGAQGDGIAHCPDGPVYVPFALPGETVAIAKVKDQGTVMSITEASADRRDPVCRHFGPEGINGTCGGCSLQHLADQPYHAFKRELVVSALRSKGLTPPVDDLVICRPGERRRAVFAARKTEKGLLLGFSQANSHHIVAIEECPVTSPGIVSRFDAIRAIGLSMVANAEPFRITVLETLSGLDISVEGIKSVNDKQRRTLTETVLAMRGIARVSLSGEILIEPQKPIIEFGGIPVSPPAGGFTQATKQAEDAMAELMLAHVGKSKRIADLFCGSGTFALRLARIGRVHAVEAEDKALKALDFAARNTQGLKPVSVEKRDLFRRPLMTSELKNYDAVVFDPPRAGAEVQCKELARSTVKKIVAVSCNPLTLARDLAILTEGGYRVTRVTPVDQFLWSPHVEAVAVLEKEGHHHHHH", "soluble on expression in E. coli": "soluble"}, {"sequence": "MAHHHHHHMLSTNISSNLNNTLVNITGRENKGEWLLYPQSNYEFNIDEKLKNKFIIDKEKCKKRINAYNKNGIRNSVLAIILCHRYEYPHLLLLQHIESQKYYLLNGKYKTWEKPKEVLKKKLQKYINKIKDIHFTPAQINKEQEETVEIGDFLGEWWRTQFNSVFLPYLPAHISRPKEYIRLYQVILSPKCIFHLPPGFTLKAIPLFDLNNCGLAISGLSSILSRFKLHCMVQEQDAEN", "soluble on expression in E. coli": "not soluble"}, {"sequence": "MSLSEASFLYLNDIHADPLYSPIIPSKHDCRGDHKKTIDPHKYGQYECDSPMELFESLVSNAKQTNEKPAFILLGGDLIAHGLNTDSKMLKQSFKNVTAPLEAAFPNTSIYITLGNNDFASDYGSFDTDADNFKTAYKVFGKWMNDEQSKTFLKGGYYYADFPEVNLRFLFLNSVMYAAKRDQTQHAEDPYDQFAWIESSYDDAVQKGFKVSVALHIPPGVYYYKNKLGWNEDYITKFSKIMKKCDFSFILSGHSHTDMFLPLYSPTADKDSVLYSLSAPSVSPVNYNNPGYRVFELSNGIVKDYTQYYADLLMNPSVLKWQVEYKFSDAYSASNVTRETINNAAEWVRTTGEGQWRYRERIYTRADEHNAFYYCALKALLPDDIVDCENKLNIDKLSAQPYYKEGHHHHHH", "soluble on expression in E. coli": "soluble"}, {"sequence": "MAHHHHHHMLTTFNIIWKREQAENVNNEKQCKTVSESLGGNAESSESPSSSISEFDQLVNDVEDLLEEQQINETEKLYKISKCPNEKFNKKNKLSITDLSAQLWCEQQLELILTTGKKRETEAMRLGIERHEVLEKADHLIIDVEVNTREESLGYRLLNTIILLEQLYEYKKAREVWVFGVIRGYVLRGIIDELRIEYDHVSRREYLIISDTKTRKEKREPSFAQKKSSAIQVQTYCLLLQHLKSGKADFKKLFEIYECDPTFEFTAIDLIKYKNLENLCKVVNCLFVRLPKIKEEMEIVYEHQGVEFSRNHIPYFYHSTLFTINILLDYWDGKRSSDVVENSDKWKCKFCDFVRNCVRCPLDG", "soluble on expression in E. coli": "not soluble"}, {"sequence": "METACERLHVAQETQMQLIEKSSDKLQDHILYWTAVRTENTLLYAARKKGVTVLGHCRVPHSVVCQERAKQAIEMQLSLQELSKTEFGDEPWSLLDTSWDRYMSEPKRCFKKGARVVEVEFDGNASNTNWYTVYSNLYMRTEDGWQLAKAGADGTGLYYCTMAGAGRIYYSAFGDEAARFSTTGHYSVRDQDRVYAGVSSTSSDFRDRP", "soluble on expression in E. coli": "soluble"}, {"sequence": "MSHHFRLAKGIPHVVDATPPHSMYNSPISIHYLPKRASSADPFKRKALSKSQRELTDFVNGRNGDPHGLRLPLPIRSSLTDLVKPKLLENRNYQPPRRKTPSKDHHSKAEENSKKAKKLERINKFKDAVLTDLIENDTYSDQMIMNSIRRHMEKLAGVISWDDLEKAADELIKKIGLNTNVQNSRRSSRSRDKNQRFNKPPLPYKVERIGSAQSLESLSSPSSSSAKTSSSSSSSSFSTSSQETNSSESS", "soluble on expression in E. coli": "not soluble"}, {"sequence": "MTLTKAELADILVDKVSNVTKNDAKEIVELFFEEIRSTLASGEEIKISGFGNFQLRDKPQRPGRNPKTGEEVPITARRVVTFHASQKLKSMVEHYYDKQR", "soluble on expression in E. coli": "not soluble"}, {"sequence": "MGSDKIHHHHHHMKIQSLFFTLYGDYVKDSGGTISSKSLIVIFKEFGFSEGAIRAGLHRMKKAGLIVGIKGENRKVSYKLSEKGMLRLLEGTRRVYEKVRRRWDNKWRIVVYNIPENNRELRDKLRRELKWLGFGMLAQSTWISPNPIEDTLKNFINDHYGSSNGIQVDIFVANYLGEPKGLVEKCWNLSEVEQAYRAFLEKWTGVLEKVSSLKSNEAFVTRILLVHEYRKFLNIDPDLPEDLLPPNWIGYTAYDLFMKLREELTPKANEFFYKVYEP", "soluble on expression in E. coli": "not soluble"}, {"sequence": "LQETGAEFKIEVSILKDKATVLIDTTGASLFKRGYRTDKGGAPIKENMAAAILELSNWYPDKPLIDPTCGSGTFCIEAAMIGMNIAPGFNRDFAFEAWNWVGKDLVQSVRDEADSKANYDVALDIMGCDIDSRMVEIAKANAREAGLEDVVKFKQMRLQDLKTDKINGVIISNPPYGERLLDDKAVDILYNEMGQTFAPLKTWSKFILTSDEQFESKYGMKADKKRKLYNGTLRVDLYQYFGERVRRSEARKVN", "soluble on expression in E. coli": "not soluble"}, {"sequence": "MGSDKIHHHHHHMLKVSDLTVGNNFVHNVSFEVNPGERVGIIGESGSGKSLTALSIMGLTDLPTTGQITFNGKPSATFRGTRIAMVFQEPMSALNPLMRIGRQIEEMMTLHGASKKDARARLKSLLIDVSLPERTASAYPHELSGGQRQRALIAMALANDPDLLICDEPTTALDVVVQKQIVDLLLRLTKERGTALLFITHDLGLIARTCERLLVMKSGETVERGDTEAILRSPAHSYTQQLLDASILDQPEIASDSGAPVVIDVEEASKSFKETTALHKVSLAVRKGDLLGIVGGSGSGKTTLLKLIAGLDKPTTGTVAVTGGVQMVFQDPQSSLNPRMKIKDIVAEPLLGWNAAEKTTRVAEVITQVGLSPDVLDRYPHEFSGGQRQRISIARALAIKPAILLADEPVSALDVSVRKQVLDLLQQLVEEYGITLVFVSHDLAVVRHLCTTVWVMEQGRVLEQGPIDSVYDHPQTEYTKELLDAVPRLSL", "soluble on expression in E. coli": "not soluble"}, {"sequence": "MSLSYTKIFGLGGVHEIGKSTLVIHHEKSIAIIDAGIKFADSSTTGLHGIIPNYSYLKKHEDQIEGIFVTHGHEDHIGGIIYLLQQVKINKIFAPKIAIEYLKYKLEDRGLRIKVEFIEIKKDDTHHLGSLVVDFWTAQHSIPDAFGIRVKTPDGSVLCTGDFRIDYRPIGNYTDFSKLEQIGKEGLTLLLSDSTNAMRPNHSPSENDILKDIEKIMLAAKRKIIITTFASNLIRIKVIIELAEKLNKKIAVFGRSMVNGIAIGKELGYIKTPDSSFIDKKSIDQYEDKDIVILTTGSQGEQLAALSRMSYEKHPQVSIRKNDTIIFSSSPIPGNKMKIELLINRLYKLGAIIKENGVDGYLHTSGHAYQEEHEKIFSIAKPKYFFPYHGEYRMSVVHGQTAIRSGVKPENVIIPGIGEVVKMEEGHHHHHH", "soluble on expression in E. coli": "not soluble"}, {"sequence": "MGSDKIHHHHHHMPKRPVRKPGVFARLEDLYTRMETAYNATAAAAGLTCTGCDDNCCRTHFRHHTRIEWAYLWKGMLSLSPERREAYLERAKDVVAQCDAALAAGVVPRVMCPLNDEGRCGLYKYRLMICRMHGTRNILRLPDGRTQVFRGCHRFDNCTAQFADADRPSLDRTPLYTELAKLEMEHLGPTAARQQRVDLTLAEMLVYGPPKP", "soluble on expression in E. coli": "not soluble"}, {"sequence": "HEIPYDNTSLPAVTFMQPSAKKNLLIFGGYDSNLEELILWFSPLRNNGYNLIIFDGPGQGNMLFKKEKSHFIMNFEKPVAAVLDYFSLDRVAALGLSWGGFFVMRAAAFEKRIEKIIALDIFYQGLDALTIAMNPVLAFIFKTLVNFKCKTWIDVLLTHAMTRDLDLNWKIKRGYQLTGTKTPYDLIQNIKKHNMKGLGPLINQEVLLLAGEKDQYVPVKRLGQIKKELSNAAEIKTHLFTQESGGEQHCQAGSNLALLAIKDFLK", "soluble on expression in E. coli": "not soluble"}]}]}
